Assay: yeast display, Sf9 membrane polyspecificity reagent, FACS + sequencing; frameworks hold sequencing errors
Procedure, shortened: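 Sorting gates, low and high (top ~1%), were placed on anti-HA fluorescence to track expression and on streptavidin fluorescence to track reagent binding. A clone's polyreactivity label is taken from the gate it came out of. The reagent was 10% biotinylated, detergent-solubilized Sf9 membrane, applied for 1 hour at 4 °C to galactose-induced yeast display cells.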

QVQLVESGGGLVQAGGSLRLSCAASGRTFYEYAMGWYRQAPGKERELVAGITSGGSTNYADSVKGRFTISRDNAKNTVYLQMNSLKPEDTAVYYCDASYWGYEYDYWGQGTQVTVSS
polyreactivity (PSR sort gate): low polyreactivity

QVQLVESGGGLVQAGGSLRLSCAASGLIFGNNAMGWYRQAPGKERELVAAISWSTGGSTYYADSVKGRFTISRDNAKNTVYLQMNSLKPEDTAVYYCAAQYSYGEYWGYDYWGQGTQVTVSS
polyreactivity (PSR sort gate): low polyreactivity

QVQLVESGGGLVQAGGSLRLSCAASGFILSPNTMGWYRPAPGKERELVAAISTDVSTYADSVKGRFTISRDNAKNTVYFQMNSLKPEDTAVYYCNADDFGYASYEYWGQGTQVTVSS
polyreactivity (PSR sort gate): low polyreactivity

QVQLVESGGGLVQAGGSLRLSCAASGRIFGIYAMGWYRQAPGKERELVAAISKSGARTYYADSVKGRFTISRDNAKNTVFLQMNSLKPEDTAVYYCNAYRRKYYFTYGSWGQGTQVTVSS
polyreactivity (PSR sort gate): high polyreactivity

QVQLVESGGGLVQAGGSLRLSCAASGRIFQQYAMGWYRQAPGKEREVVAAISRGGSTYYADSVKGRFTISRDNAKNTVYLQMNSLKPEDTAVYYCAVRSRRGLKYDYWGQGTQVTVSS
polyreactivity (PSR sort gate): high polyreactivity

QVQLVESGGGLVQAGGSLRLSCAASGSTFPYYAMGWYRQAPGKERELVASIRKRGGGTYYADSVKGRFTISRDNAKNTVYLQMNSLKPEDTAVYYCAVRVYQFRYTGYDYWGQGTQVTVSS
polyreactivity (PSR sort gate): high polyreactivity

QVQLVESGGGLVQAGGSLRLSCAASGSIFGTNGMGWYRQAPGKERELVAAITRRGGSTYADSVKGRFTISRDNAKNTVYLQMNSLKPEDTAVYYCAAQGYLRLRTHFNYWGQGTQVTVSS
polyreactivity (PSR sort gate): low polyreactivity

QVQLVESGGGLVPAGGSLRLSCAASGSTFIAYTRGWYRKAPGKERELVAAISGTGGTTYADSVKGRFTISRDNAKNTVYLQMNSLKPEDTAVYYCAAQYRYTYWGQATQVTVSS
polyreactivity (PSR sort gate): low polyreactivity

QVQLVESGGGLVQAGGSLRLSCAASGFTFRWYTMVWYRQAPGKERELVAAITGSGCTTYYADSVKGRFTISRDNAKNTVYLQMNSLKPEDTAVYYCAARTATSSPSWYEYWGQGTQVTVSS
polyreactivity (PSR sort gate): high polyreactivity

QVQLVESGGGLVQAGGSLRLRCAASGRIFRKYAMGWYRQAPGKERELVAAITSGGSTYYADSVKGRFTISRDNAKNTVYLQMNSLKPEDTAVYYCAAFYRGGDYWGQGTQVTVSS
polyreactivity (PSR sort gate): high polyreactivity

QVQLVESGGGLVQAGGSLRLSCAASGFIFWRNTMGWYRQAPGKERELVAVITRGGSTYYADSVKGRFTISRDNAKNTVYLQMNSLKPEDTAVYYCAARNDYYKTFSGYDYWGQGTQVTVSS
polyreactivity (PSR sort gate): low polyreactivity

QVQLVESGGGLVQAGGSLRLSCAASGITFGPYAMGWYRQAPGKERELVAAISYSGGRTYYADSVKGRFTISRDNAKNTVYLQMNSLKPEDTAVYFCARRYGYFGYEYDYWGQGTQVTVSS
polyreactivity (PSR sort gate): high polyreactivity

QVQLVESGGGLVQAGGSLRLSCAGSGRILVQNDMGWYRQAPGNESELVAAIRSDGSTSYADSVKGRFTISRDNAKYTVYLQMNSLKPEDTAVYYCAARIDWTGGYYDYWGQGTQVTVSS
polyreactivity (PSR sort gate): low polyreactivity

QVQLVESGGGLVQAGGSLRLSCAASGRTFERNAMGWYRQAPGKERELVAAITSGDGTSYADSVKGRFTISRDNAKNTVYLQMNSLKPEDTAVYYCAVSKGVFLVRGYAYHVGYWGQGTQVTVSS
polyreactivity (PSR sort gate): low polyreactivity

QVQLEDSGGGLVQAGGSLRLSCAASGSTFDNYAMGWYRQAPGKERELVAVITQSGGITFYADSVKGRFTISRDNAKNTVYLQMNSVKPEDTAVYYCNVELDRSWYYYWGQGTQVTVSS
polyreactivity (PSR sort gate): low polyreactivity

QVQLVESGGGLVQAGGSLRLSCAASGFTFSHYAMGWYRQAPGKERELVAAISRRGSSTYYADSVKGRFTISRDNAKNTVYLQMNSLKPEDTAVYYCNVERLTGVWYYQRPSQDGYWGQGTQVTVSS
polyreactivity (PSR sort gate): high polyreactivity

QVQLVESGGGLVQAGGSLRLSCAASGSIFRTNAMGWYRQAPGKERELVAAITTSGVTTYYADSVKGRFTISRDNPTNTVYLQMNSLKPEDTAVYYCNARDGRYLPRYDYWRQGTQVTVSS
polyreactivity (PSR sort gate): low polyreactivity

QVQLLETGGGLVQAGGSLRLSCAASGNTIIRYAMGWYRQAPGTERELVAAISYSGGRSYYADSVKGRFTISRDNAKYTVYLLMNSLKPEDTEVYYCIAASRYGGDYWGQVTQVTVSS
polyreactivity (PSR sort gate): low polyreactivity

QVQLVESGGGLVQAGGSLRLSCAASGSTFSRNAMGWYRQAPGKERELVAAISWRGGRTYYADSVKGRFTISRDNAKNTVYLQMNRLKPEDTAVYYCAAEHKYRYDYWGQGTQVTVSS
polyreactivity (PSR sort gate): low polyreactivity

QVQLVESGGGLVQAGGSLRLSCAASGSIFRSYAMGWYRQAPGTERELVDGISYSGGSTYYADSVKGRFTISRDNAKNTVYLQMNSLKPEDTAVYYCNVDGGTYFFFVGAWGEYDYWGQGTQVTVSS
polyreactivity (PSR sort gate): low polyreactivity

QVQLGESGGGLVQAGGSLRLSCAASGRTFYWYDMGWYRQAPGKERELVAAITRSGGSTDYADSVKGRFTISRDNAKNTVYLQMNSLKPEDTAVYYCNADYEVSSQRPAFDYWGQGTQVTVSS
polyreactivity (PSR sort gate): low polyreactivity

QVQLVESGGGLVQAGGSLRLSCAASGSTFVWYAMGWYRQAPGKEREFVAAITSDGGSTYYADSVKGRFTISRDNAKNTVYLQLNSLKPEDTAVYYCAADYYSLASGWYYYWGQGTQVTVSS
polyreactivity (PSR sort gate): high polyreactivity

QVQLVESGGGLVQAGGSLRLSCAASGRTFGGNTMGWYREAPGKERELVAAISRRGGSTYYADSVKGRFTISRDNAKNTVYLQMNSLKPEDTAVYYCNKDGPSYSSYDYWGQGTQVTVSS
polyreactivity (PSR sort gate): low polyreactivity

QVQLVESGGGLVQAGGSLRLSCAASGSTFLFNVMGWYRQAPGKERELVAAITSGASTYYADSVKGRFTISRDNAKNTVYLQMNSLEPEDTAVYYCAVDYSFRYDYVQRYYYWGQGTQVTVSS
polyreactivity (PSR sort gate): high polyreactivity

QVQLVETGGGLVQAGGSLRLSCASSGITFYRYGKGRYRQAPGKERELVAAITYNGGGTYYADSVKGRFTISRDNAKNTVYLQMNSLKPEDTAVYYCATLRPYAYPQYDSWGQGTQVTVSS
polyreactivity (PSR sort gate): high polyreactivity

QVQLVESGGGLVQAGGSLRLSCAASGRTFSLYAMGWYRQAPGKERELVAGIDWSGGSTYYADSVKGRFTISRDNAKNTVYLQMNSLKPEDTAVYYCAAKYVWVSKASKDYDYWGQGTQVTVSS
polyreactivity (PSR sort gate): low polyreactivity

QVQLVESGGGLVQAGGSLRLSCAASGRISKKYAMGWYRQAPGKERELVAAIRGSGGGTYYADSVKGRFTISRDNAKNTVYLQMNSLKPEDTAVYYCNAASRHSTAPITGYDSWGQGTQVTVSS
polyreactivity (PSR sort gate): high polyreactivity

QVQLVESGGGLVQAGGSLRLSSPASGITFDKYAMGWYRQAPGKERELVAAISRSAGSTYYADSVKGRFTISRDNEKYSVYLQMKSLKPEDCAVYLCAGDPLIYDDYYWGQGTNVTVSS
polyreactivity (PSR sort gate): high polyreactivity

KVQHVESGGGLVQAGGSLRLSSAASGRISWSYAMGWYRQAPGKESELVAAITSGGTTNYAYSVKGRFTISRDNAKYTVYLQMNSLKPEDTAVYYCARDSYQLGLIRDPLEYDFWGKGTQVTVSS
polyreactivity (PSR sort gate): low polyreactivity

QVQLVESGVGLVQAGGILRLSCAASGSIFAVNAMGWYRQAPGKERELFAAISKRGGSTYYADSVKGRFTISRDNAKNTVYLQMNSLKPEDTAVYYCAARILVTYHRDYYYWGLGTQVTVSS
polyreactivity (PSR sort gate): high polyreactivity

QVQLVESGGGLVQAGGSLRLSCAASGSILRDHAMGWYRQATGKERELVAAITSGDSTHYADSVKGRFTISRDNAKNTVYLQMNSLKPEDTAVYYCATKWSLISIHGYYYWGQGTQVTVSS
polyreactivity (PSR sort gate): low polyreactivity

QVQLVESGGGLVQAGGSLRLSCAAAGRTFGDYDMGWYRQAPGKERELVAAITSDGTTYYADYVKGRFTISGDNAKNTVYLQMNSLKPEDTAVYYCAADYWYVSWYDYWGHGTQVTVSS
polyreactivity (PSR sort gate): low polyreactivity

QVQLVESGGGLVQAGGSLRLSCAASGSILGDYAMGWYRQAPGSEREFVAAIDGSDGSTYYADSVKGRFTISRDNAKNTVYLQMNSLKPEDTAVYYCAATDYDTYRSSWYDYWGQGTQVTVSS
polyreactivity (PSR sort gate): low polyreactivity

QVQLVESAGGLVQAGGSLRLSCAPSGFTFALYAMRWYRQAPGNERELVAANTRSGRTKYADSVKGRFTISRDNAKNTVYLQMNSLKPEDTAVYYCAALFRYYVTTRFNYWGQGTQVTVSS
polyreactivity (PSR sort gate): high polyreactivity

QVQLVESGGGLVQAGGSLRLSCAASGSIFGENAMGWYRQAPGKERELVAAITWSGASTYYADSVKGRFTISRDNAKNTVYLQMNSLKPEDTAVYYCNADRYVRYSTFDYWGQGTQVTVSS
polyreactivity (PSR sort gate): high polyreactivity

QVQLGESGGRLVQAGGSIRLTCAASGRTFVTYAMAWSRQAPGNEWELVAGIRPGGSTYYADSVKGRFTISRDNAKNTVYLQMNSLKPEDTAVYYCAASRTSWQGYNYWGQGTQVTVSS
polyreactivity (PSR sort gate): high polyreactivity

QVQLVESGGGLVQAGGSLRLSCAASGRTFRYYTMGWYRQAPGKEREFVAAISSTGGTYYADSVKGRFTISRDNAKNTVYLQMNSLKPEDTAVYYCNATTSSNEYDSWGQGTQVTVSS
polyreactivity (PSR sort gate): low polyreactivity

QVQLVESGGGLVQAGGSLRLSCAASGRIFTQYTMGWYRQAPGKERELVAAISRGGGSTYYADSVKGRFTISRDNAKNTVYLQMNSLKPEDTAVYYCAAIRREVVAGDYWGQGTQVTVSS
polyreactivity (PSR sort gate): high polyreactivity

QVQLVESGGGIVQAGGSLRLICAASGRTFKYYAMGWYRQAPGKERELVAAIRSRTGSTYYADSVKGRFTISRDNAKNTVYLQMNSLKPVDTAVYYCAAQPGSYYGPRWYYDDDYWGQGTQVTVSS
polyreactivity (PSR sort gate): high polyreactivity

QVHLVVSGGGLVQAGGSLRLSCAAYGRTFRIYAMGWYRQAPGKDRELVARITKRAGSTYYADSVKGRFTISRDNAKNTVYLQMNRLKPEDTSVYYCAADVRVQYRQDLTYDYWGQGTQVTVSS
polyreactivity (PSR sort gate): high polyreactivity

QVQVVESGGGLVKAGGSLRLSCAASGIIFVYYAMGWSRQAPGKERELVAAITSDGGRTYYADSVKGRFTISRDNAKNTVYLQMNSLKPEDTAVYYWAARTLYRGIKGYNYWGQGTQVTVSS
polyreactivity (PSR sort gate): high polyreactivity

QVQIVESGGGLVQAGGSLRLSCAASGSTFVDYDMGWYRQAPGKERELVAGITTGGSTNYADSVKGRFTISRDNAKNTVYLQMNRLKPEDTAVYYCAATVYGIYYYGRDRYDYWGQATQVTVSS
polyreactivity (PSR sort gate): low polyreactivity

QVQHVESGGCLVQAGGSLRLSCAASGRIFRGYAMGWYRQAPGKERELVAAISSRGSTYYADSVKGRFTNSRDNAKNTVYLQMNSLKPEDTAVYYCAKSEYARLSGFRYRTGYNYWGQGTQVTVSS
polyreactivity (PSR sort gate): high polyreactivity
